# In the DeepSol protein solubility set:
# Assay: soluble on expression in E. coli; label from the status in PepcDB or PDB records
row,Sequence,soluble on expression in E. coli
1,MEIATRLKMNVKEQTEVILTNFTKMLFRRKLIKDQQSLLNKLKNIDTKDIYHFKENDMNFLLIITFQKLNGIKKGSEIEEQLIKSKGYNFIIASQSSNKTYQQVKNFKGELFLTLEFLSDIPSLPFVPEHILLSEKEKEEILSVYKEKNIAKIFVTDMMARYLGAKKGDLIKIIRKTLNTGESIYYRRVF,not soluble
2,MEIEVTPVDILLQLVKMGKVDPWNIDIVDLTEKYIKMLREMQELDLRISARAILAAAILVRMKSEALLNEDSREQEEKEEERIRVEVDPLVPPLRRVERYYTLDDLIDALMEALEEAERRKPKKKKKVEIDEEIFVIDDFRVDIEKYVEELYKVVKKIYEKTGTPIKFWDLVPDVEPKIIARTFLYLLFLENMGRVEIIQEEPFGEILVVPM,soluble
3,MEIGDLNEVNELVSRLNNENVKIAEVNDYIQTLSAGIEEMNVQAQQLSDFAVESSSMAEKGKEISDNVALKVSKISETSREMSNAISILAEYSKKIDEIVYVISSIASQTNLLALNASIEAARAGEAGRGFAVVAENVRELADRSKKAAEQIRDLIKEMQENTNRVIEAIQENVKVTEEVKEAIQELIAAFDDIARRANETATMVKELSEGIDEQANSVQMLVERIDSISKDVSDNLNFATQLTETVKGSIEKLEVIKNKVSQLKDELDKTLEKLEV,soluble
4,MEIKKGLEDVYVKETEITYIDGELGRLYYRGYSIYDLAEFSNFEEVSYLILYGKLPNREELNWFQEKLREERYLPDFIIKFLREVRKDAQPMDILRTAVSLLGIEDSKNDERTDIKGIKLISKFPTIVANYARLRKGLDIIEPDPKLSHSENFLYMLYGDRPNEIKSKAMDVTLILHIDHEMNASTFASLVVASTFSDLYSSIVAGISALKGPLHGGANYEALKMFKEIGSPEKVNDYILNRLSNKQRIMGFGHRVYKTYDPRARILKQYAKLLAEKEGGEIYTLYQIAEKVEEIGIKYLGPKGIYPNVDFFSSIVFYSLGFEPDFFPAVFASARVVGWVAHIMEYIKDNKIIRPKAYYKGEIGKKYIPIDSR,soluble
5,MEISNRLKSISEVMDRCEIAADIGTDHAYLPIYLIKNNLCKRFIASDVNAGPLKKAINNINKYKLEDKIECRLGSGLNVLKLEEVDVVVIAGMGGNLIRDIIEERLDIFKKLKYAVLQPVQNPEILREYLIKRGFNIIEEQLCIDESKYYEIIKVCYDSKIEDKDDVYYEIGDKLIDMKHPLLKEYINYKIRKYDKIYKNISEESLNALSRKNELSIKIRKLKELLSCL,not soluble
6,MEKITFEQVKEAVFHEKMSNGLQVYLLPKQGFSKTYAVFTTNYGAIDNNFVPIGETEFTKVPDGIAHFLEHKMFEKEDGDVFFKFGEKGAFTNAFTSFTKTAYLFSSTSRVEENLETLIDFVQEPYFTEETVEKEKGIIGQEIRMYDDDPDFRAYFGVIENMYHNHPVKIDIAGTVESIAEINKDLLYLCYNTFYHPSNMVLFVVGNLEPEEMMNQIRANQAKKDFTEAAPIKRHFPEEPKTVAVKERKIHFPVQIAKNMVGIKEDIGSLEGQVALKQEIIGDVALEMLFGTTSDTYLELYNQGIIDDSFGYDYTLQDSFSFVLVGGDAKDPDMQTTKIIEAIQAAAKNGLNEADLALVKRKRIGQFLRSLNSPEFIANQFSQYVMKSASLFDILPLMETVTLEEVNNFVKNLDSEERTTSFQLLPEK,not soluble
7,MEKKTANDVVTLARAQDRLTTLEYIEAIFEDFLEFHGDRYFADDLAVVGGVATLQGKPVTVVGIQKGRNLPENIERNFGSPNPEGYRKALRLMKQAEKFNRPVITFVNTAGAYCGIGAEERGEGEAIAQNLLEMSDLKVPIISVIIGEGGSGGALALAVADEVWMLEHTIYAVLSPEGFASILWKDGSRAKEAAELMKITATELKELAIVDKVIPEVMNGQPLEQAKINRMLQKAFISKLTELAKLDTETLLEKRYQRFRKY,not soluble
8,MEKNDIFVVIPAYNEEKMIKNTLINLKSHGYENIIVVDDGSRDNTSKIAISEEVIVCKHIINRGLGGALKTGLKCAVKYNPKVIVTFDADGQHDPEDIFKVSEPILEDSFDVVVGSRLIDENELKNMPLIKKIGNWGLNFITYLMGGRMVTDSQGGLRAFSYDAAEIVSKQLKSNRYEVSSEFIVLFKKNNLKFKEVPIKTIYTEYSMARGTNVITGFKILFKLLIQKLILEHHHHHH,soluble
9,MEKPSPTRRQTSSLSTISNGMTMTNDNRDTTNTNSGSTSSNNSQPSSSSTPPAASGPVTDRTKVNYVPKSDDPSSFQYYPDDPENPVNKYKFALKADSQYYDPCEESSKLSFQCLERNDYDRSKCQEYFDAYRECKKQWLTARRKNRQQWE,soluble
10,MEKQKTFHVAVVGATGAVGEQMLNTLEKREFPIGKLTLLSSKRSAGKKLVFKGEEFTVQEATPESFEGVDIALFSAGGSVSKQLAPEAAKRGAIVVDNTSAFRMTENVPLVVPEVNENDLKEHNGIIANPNCSTIQMVVALEPVRQQYGLKRVIVSTYQAVSGAGAAAIEELHEQSQAILNGEEVKANVLPVSGDKKHFPIAFNAIPQIDKFQDNGFTFEEMKMINETKKIMHMPELEVAATCVRLPVVSGHSESVYIEVEKEGVTVEELKSLLANAEGIVLQDNPEEQLYPMPATAVGKNEVFVGRIRKDLNNDKGFHLWVVSDNLLKGAAWNSVQIAERLVKLQLV,not soluble
11,MEKVVCIGCGVTIQTEDKTGLGYAPPASLTKENVICQRCFRLKNYNEIQDVSLTDDDFLNILHGIGETDSLVVKIVDIFDFNGSWINGLQRLVGGNPILLVGNKADILPKSLKRERLIQWMKREAKELGLKPVDVFLVSAGRGQGIREVIDAIEHYRNGKDVYVVGCTNVGKSTFINRIIKEVSGEEDIITTSQFPGTTLDAIEIPLDDGSSLYDTPGIINNHQMAHYVNKKDLKILSPKKELKPRTFQLNDQQTLYFGGLARFDYVSGERSPFICYMPNELMIHRTKLENADALYEKHAGELLTPPGKDEMDEFPELVAHTFTIKDKKTDIVFSGLGWVTVHDADKKVTAYAPKGVHVFVRRSLI,not soluble
12,MELGQAMVTVAGIGCRKGAASDAIIAAVRAAERAFGVTVDYLATAPLKADEAGLAEAAKGLSLSLEIVAQERLEAVAAETMTFSQASLDHSGSPSVSEAAALAAAGAGARLVAPRLVVGDVTVAIAMTSDAPHGSRSAIEYGEQE,not soluble
13,MELKDRIKAARKHAHLSQVQLAQAVGMTQTSISDLERGKSRATSFVAQIAGACGVNPLWLAEGRGEMLAERGQANAGPNASWLGAVESWDDETPLDADEIELPFYKEIELSGGKGSTVILQTGGRKLRFGKYTLRKKNIDPASAACVTVSGNSMEPVLPDGSTVGVDTSARTIKDGDMYAFDHDGQLRVKLLYRLPGGGLRIRSFNSDEHPDERYEPQEAAEHINVIGRVFWYSVLV,not soluble
14,MELLLLSNSTLPGKAWLEHALPLIANQLNGRRSAVFIPFAGVTQTWDEYTDKTAEVLAPLGVNVTGIHRVADPLAAIEKAEIIIVGGGNTFQLLKESRERGLLAPMADRVKRGALYIGWSAGANLACPTIRTTNDMPIVDPNGFDALDLFPLQINPHFTNALPEGHKGETREQRIRELLVVAPELTVIGLPEGNWIQVSNGQAVLGGPNTTWVFKAGEEAVALEAGHRF,soluble
15,MELNAVKSSYARWAPIYDKTFGAITNVGRHAAVDYINAHDATELLEVGVGTGLSLPNYRPGLKVTGIDFSEEMLAKARAKVESLGLGHVQSLRQMDARDLDFADASFDVVAAMHIISVVPEPERVMAEMARVCKPGGLIVITNHFARDSGMLARVERFAAPFANLLGWHPDFEISSVLKQPLEHHHHHH,not soluble
16,MELPSMNVPFSRYCWVTLTIQDHLPIDSFRSLNLSITNDNYSGGDLKAYPADFNGILAGNWFTFSPVTYSMKLQYNYTNGAEEATRVRVYCKSPLPYWLPYCG,not soluble
17,MELQLAIDLLNKEEAAKLAQKVEEYVDIVEIGTPIVINEGLPAVQHLNENINNAKVLADLKIMDAADYEVSQAVKYGADIVTILGVAEDASIKAAVEEAHKHGKALLVDMIAVQNLEQRAKELDEMGADYIAVHTGYDLQAEGKSPLDSLRTVKSVIKNSKVAVAGGIKPDTIKDIVAEDPDLVIVGGGIANADDPVEAAKQCRVAIEG,not soluble
18,MELSADYLREKLRQDLEAEHVEVEDTTLNRCATSFRVLVVSAKFEGKPLLQRHRLVNECLAEELPHIHAFEQKTLTPEQWTRQRRE,soluble
